Measurements from the supplement of paper PMC10567573.

B1: SMAD6 (parent)
chain: SGLVRRLWRSRVVPDREEGGSGGG
B2: SMG5 (parent)
chain: QEKLQVLMAEGLLPAVKVFLDWLR

Variants of: B1
Test: protein stability index of a GFP-peptide fusion (GPS, HEK-293T) (PSI 1-6); higher = more stable
Conditions: c terminus: a fixed tail appended
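Further: lentivirally expressed fusions sorted by FACS into six bins by GFP to DsRed ratio, PSI derived from sequencing read proportions per bin multiplied by bin number.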

Row | Variant | protein stability index
1 | SGLVRRLWRSRVVKDREEGGSGGG [P14K] | 4.3
2 | SSLVRRLWRSRVVPDREEGGSGGG [G2S] | 4.17
3 | SALVRRLWRSRVVPDREEGGSGGG [G2A] | 2.15
4 | SWLVRRLWRSRVVPDREEGGSGGG [G2W] | 2.29
5 | SPLVRRLWRSRVVPDREEGGSGGG [G2P] | 4.79
6 | SGLVRRLWRSRVVPDREEGGVGGG [S21V] | 3.37
7 | SGLVRRLWRSRVVPDREEGGYGGG [S21Y] | 3.09
8 | SGLVRRLWRSRVVPDREEGGDGGG [S21D] | 4.54
9 | SGNVRRLWRSRVVPDREEGGSGGG [L3N] | 4.73
10 | SGLVRRLWRSRVVPDREEPGSGGG [G19P] | 4.07
11 | SGLVRRLWRSRVVPDREEWGSGGG [G19W] | 2.79
12 | SGLVRRLWGSRVVPDREEGGSGGG [R9G] | 3.27
13 | SGLVRRLWRSWVVPDREEGGSGGG [R11W] | 2.22
14 | SGLVRRLWRSGVVPDREEGGSGGG [R11G] | 4.98
15 | SGLVRRLWRSRVVPIREEGGSGGG [D15I] | 2.75
16 | SGLVRRLWRSRVVPMREEGGSGGG [D15M] | 3.01
17 | SGLVIRLWRSRVVPDREEGGSGGG [R5I] | 2.4
18 | SGLVLRLWRSRVVPDREEGGSGGG [R5L] | 1.97
19 | SGLVSRLWRSRVVPDREEGGSGGG [R5S] | 3.27
20 | SGLVCRLWRSRVVPDREEGGSGGG [R5C] | 2.46
21 | SGLVARLWRSRVVPDREEGGSGGG [R5A] | 3.76
22 | SGLVQRLWRSRVVPDREEGGSGGG [R5Q] | 3.72
23 | SGLVRRLWRSRVVPDREDGGSGGG [E18D] | 3.82
24 | SGLVRRLWRSRVVPDRENGGSGGG [E18N] | 2.42
25 | SGLVRRLWRSRVVPDREPGGSGGG [E18P] | 3.46
26 | SGLVRRLWRSRVVPDREIGGSGGG [E18I] | 4.17

Row | Variant | protein stability index
27 | SGLVRRLWRSRVVPDREEGGSFGG [G22F] | 2.98
28 | SGLVRRLWRSRVVPDREEGGSGHG [G23H] | 3.7
29 | SGLVRRLWRSRVVPDREEGGSGEG [G23E] | 3.9
30 | SGLVRRLWRSRVVPDREEGGSGDG [G23D] | 5.01
31 | SGLVRRLWRSRVVPDREEGGSGNG [G23N] | 3.01
32 | SGLVRRLWRWRVVPDREEGGSGGG [S10W] | 2.6
33 | MGLVRRLWRSRVVPDREEGGSGGG [S1M] | 2.45
34 | WGLVRRLWRSRVVPDREEGGSGGG [S1W] | 2.61
35 | SGLVRRLWRSRVVPDREEGRSGGG [G20R] | 4.04
36 | SGLVRRLWRSRVVPDREEGISGGG [G20I] | 3.06
37 | SGLVRRLWRSRVVPDREEGWSGGG [G20W] | 1.99
38 | SGLVRRLWRSRVVPDREEGASGGG [G20A] | 4
39 | SGLVRRLWRSRVVPDREEGNSGGG [G20N] | 3.11
40 | SGLVRRLWRSRVVPDRYEGGSGGG [E17Y] | 1.19
41 | SGLVRRLWRSRVVPDRDEGGSGGG [E17D] | 4.12
42 | SGLVRRLWRSRIVPDREEGGSGGG [V12I] | 4.07
43 | SGLVRRLWRSRNVPDREEGGSGGG [V12N] | 4.22
44 | SGLVRRLWRSRYVPDREEGGSGGG [V12Y] | 3.1
45 | SGLVRRLWRSRMVPDREEGGSGGG [V12M] | 4.06
46 | SGLVRRLWRSRVVPDLEEGGSGGG [R16L] | 3.34
47 | SGLVRRLWRSRVVPDSEEGGSGGG [R16S] | 4.7
48 | SGLVRRLWRSRVVPDEEEGGSGGG [R16E] | 4.32
49 | SGLVRRLWRSRVVPDIEEGGSGGG [R16I] | 3.76
50 | SGLVRRLWRSRVVPDREEGGSGGK [G24K] | 3.78
51 | SGLVRMLWRSRVVPDREEGGSGGG [R6M] | 2.93
52 | SGLVRCLWRSRVVPDREEGGSGGG [R6C] | 3.46

Variants of: B2
Test: as above
Conditions: c terminus: a fixed tail appended

Row | Variant | protein stability index
53 | QPKLQVLMAEGLLPAVKVFLDWLR [E2P] | 2.96
54 | QHKLQVLMAEGLLPAVKVFLDWLR [E2H] | 3.82
55 | QQKLQVLMAEGLLPAVKVFLDWLR [E2Q] | 2.92
56 | QFKLQVLMAEGLLPAVKVFLDWLR [E2F] | 2.2
57 | QSKLQVLMAEGLLPAVKVFLDWLR [E2S] | 3.11
58 | QGKLQVLMAEGLLPAVKVFLDWLR [E2G] | 1.6
59 | QYKLQVLMAEGLLPAVKVFLDWLR [E2Y] | 2.15
60 | QMKLQVLMAEGLLPAVKVFLDWLR [E2M] | 2.83
61 | QAKLQVLMAEGLLPAVKVFLDWLR [E2A] | 2.31
62 | QIKLQVLMAEGLLPAVKVFLDWLR [E2I] | 2.23
63 | QCKLQVLMAEGLLPAVKVFLDWLR [E2C] | 2.47
64 | QNKLQVLMAEGLLPAVKVFLDWLR [E2N] | 2.86
65 | QWKLQVLMAEGLLPAVKVFLDWLR [E2W] | 1.56
66 | QLKLQVLMAEGLLPAVKVFLDWLR [E2L] | 1.44
67 | QRKLQVLMAEGLLPAVKVFLDWLR [E2R] | 2.37
68 | QDKLQVLMAEGLLPAVKVFLDWLR [E2D] | 2.26
69 | QVKLQVLMAEGLLPAVKVFLDWLR [E2V] | 2.56
70 | QKKLQVLMAEGLLPAVKVFLDWLR [E2K] | 2.38
71 | QTKLQVLMAEGLLPAVKVFLDWLR [E2T] | 2.68
72 | TEKLQVLMAEGLLPAVKVFLDWLR [Q1T] | 1.96
73 | LEKLQVLMAEGLLPAVKVFLDWLR [Q1L] | 3.5

Row | Variant | protein stability index
74 | FEKLQVLMAEGLLPAVKVFLDWLR [Q1F] | 2.89
75 | IEKLQVLMAEGLLPAVKVFLDWLR [Q1I] | 2.95
76 | EEKLQVLMAEGLLPAVKVFLDWLR [Q1E] | 3.01
77 | AEKLQVLMAEGLLPAVKVFLDWLR [Q1A] | 2.23
78 | YEKLQVLMAEGLLPAVKVFLDWLR [Q1Y] | 2.81
79 | WEKLQVLMAEGLLPAVKVFLDWLR [Q1W] | 1.95
80 | NEKLQVLMAEGLLPAVKVFLDWLR [Q1N] | 1.62
81 | MEKLQVLMAEGLLPAVKVFLDWLR [Q1M] | 2.37
82 | PEKLQVLMAEGLLPAVKVFLDWLR [Q1P] | 2.09
83 | VEKLQVLMAEGLLPAVKVFLDWLR [Q1V] | 2.18
84 | CEKLQVLMAEGLLPAVKVFLDWLR [Q1C] | 1.53
85 | HEKLQVLMAEGLLPAVKVFLDWLR [Q1H] | 1.45
86 | GEKLQVLMAEGLLPAVKVFLDWLR [Q1G] | 2.22
87 | KEKLQVLMAEGLLPAVKVFLDWLR [Q1K] | 4.12
88 | SEKLQVLMAEGLLPAVKVFLDWLR [Q1S] | 2.88
89 | REKLQVLMAEGLLPAVKVFLDWLR [Q1R] | 1.57
90 | DEKLQVLMAEGLLPAVKVFLDWLR [Q1D] | 2.79
91 | QEELQVLMAEGLLPAVKVFLDWLR [K3E] | 2.25
92 | QECLQVLMAEGLLPAVKVFLDWLR [K3C] | 2.03
93 | QEALQVLMAEGLLPAVKVFLDWLR [K3A] | 4.03
94 | QEDLQVLMAEGLLPAVKVFLDWLR [K3D] | 2.02
